From article PMC5120205

How the values were obtained:
[1] = target: D2-14-N1; experiment: ELISA
[2] = target: D3-12-N1; experiment: ELISA
[3] = target: D3-24-N1; experiment: ELISA
[4] = target: D1-10-N1; experiment: ELISA
[5] = target: D3-03-N1; experiment: ELISA
[6] = target: D3-23-N1; experiment: ELISA
[7] = target: D2-14-N1 (human); experiment: SPR
Sequence of D2-14-N1 (human) (heavy, as listed by the source): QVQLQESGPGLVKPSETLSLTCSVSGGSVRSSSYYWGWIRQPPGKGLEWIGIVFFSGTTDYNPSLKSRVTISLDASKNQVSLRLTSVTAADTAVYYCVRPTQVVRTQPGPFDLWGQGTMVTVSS

Substance	percent of parent [1] [%]	percent of parent [2] [%]	percent of parent [3] [%]	percent of parent [4] [%]	percent of parent [5] [%]	percent of parent [6] [%]	Kd [7] [pM]
recombinant full-length IsdB (from UniProt Q2FHV2) Y165R	3	3	5	3	3	3	–
recombinant full-length IsdB (natural protein)	–	–	–	–	–	–	4 to 12
